The text below walks through data of patent US6600012.

The target in the assay is HLA.A2 on T2 mutant cells. Nature of the assay: T2 cell HLA.A2 upregulation assay, flow cytometry with MA2.1. A general note: In flow cytometry, cells or beads pass a laser one at a time.

The molecule SAPDTRPAP (modifications not checked) […, MUC-1 tandem repeat synthetic 9 mer] displayed a % Change in mean channel intensity of 48%.
